Assay [1] has as its target Doc1-122–His6 (DocSTm toxin) (Salmonella typhimurium). The assay can be described thus: SPR; Biacore S200; Doc-His6 captured on a Series S NTA chip (200-400 RU); peptide as analyte, single-cycle kinetics, six concentrations (3-fold dilutions), 30 uL/min; 22 C; 10 mM HEPES, 500 mM NaCl, 50 uM EDTA, 0.005% TWEEN 20, pH 8.0; kinetic 1:1 fit. (In general: Surface plasmon resonance follows binding to a sensor surface in real time, without labels.)

Assay [2] shares this target. The assay is described as above. The source holds these as a separate data set.
For assay [3] the target is unchanged. Described as above. This is another data set of the same source.
Assay [4] has the same target. The assay is described as follows: SPR; Biacore S200; Doc-His6 captured on NTA chip; peptide as analyte, multi-cycle experiments up to 500 nM; 22 C; 10 mM HEPES, 500 mM NaCl, 50 uM EDTA, 0.005% TWEEN 20, pH 8.0; steady-state 1:1 fit.
For assay [5] the target is unchanged. The description is as above. The source holds these as a separate data set.
Assay [6] shares this target. The assay can be described thus: SPR; Biacore S200; Doc-His6 captured on a Series S NTA chip (200-400 RU); peptide as analyte, single-cycle kinetics, six concentrations (3-fold dilutions), 30 uL/min; 22 C; 10 mM HEPES, 500 mM NaCl, 50 uM EDTA, 0.005% TWEEN 20, pH 8.0; kinetic 1:1 fit. The source holds these as a separate data set.
Assay [7] has the same target. Described as above. The source holds these as a separate data set.
Assay [8] shares this target. The description is as above. The source holds these as a separate data set.
For assay [9] the target is unchanged. The description is as above. This is another data set of the same source.
For assay [10] the target is unchanged. The description is as above. This is another data set of the same source.
For assay [11] the target is unchanged. Described as above. This is another data set of the same source.
For assay [12] the target is unchanged. The assay is described as above. The source holds these as a separate data set.
Assay [13] has the same target. The assay is described as above. This is another data set of the same source.
Assay [14] has the same target. Described as above. This is another data set of the same source.
Assay [15] concerns the target Doc toxin of Salmonella enterica serovar Typhimurium (DocSTm) (Salmonella enterica serovar Typhimurium). The assay can be described thus: SPR; DocSTm immobilised on a Series S NTA chip (150 nM, 200-400 RU); analytes in single-cycle kinetics, typically six concentrations, kinetic 1:1 fit; 22 °C; 10 mM HEPES, 500 mM NaCl, 50 μM EDTA, 0.005% TWEEN 20, pH 8.0.
In assay [16] the target is Doc toxin of Salmonella enterica serovar Typhimurium (DocSTm) (Salmonella enterica serovar Typhimurium, UniProt A0A1C9CWN5 1-126). The assay is described as above. To be noted: both partners purified.
Another assay addresses T1, Doc (Salmonella Typhimurium).
T1 chain: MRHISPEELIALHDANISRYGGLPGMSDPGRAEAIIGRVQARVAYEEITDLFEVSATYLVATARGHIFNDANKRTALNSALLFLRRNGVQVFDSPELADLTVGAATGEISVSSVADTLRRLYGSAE
The assay can be described thus: SPR.

In assay [17] the target is Doc toxin of Salmonella enterica serovar Typhimurium (DocSTm) (Salmonella enterica serovar Typhimurium). The assay is described as follows: SPR; DocSTm immobilised on a Series S NTA chip; analytes in multicycle kinetics, kinetic and/or steady-state 1:1 fit (steady-state for peptide 14); 22 °C; 10 mM HEPES, 500 mM NaCl, 50 μM EDTA, 0.005% TWEEN 20, pH 8.0.

Values joined by “and” are separate entries in the source; they are usually repeats but may differ in a detail not shown here. Equal values may be shown once. Read-outs that look alike come from different tables or passages of the source. No end group written: not given here.

Broadly, the Kd is the equilibrium constant for the complex coming apart. A higher Kd goes with a looser complex. One may read the koff as the rate constant with which the complex falls apart. A lower koff goes with a long-lived complex. Usually kon stands for a measure of how fast the partners come together. Lower therefore signals slow association. With peptide 2 (PhdSTm52-73-M52A), in [1], the dissociation constant (Kd) is 0.0523 nM and 0.0478 nM and 0.0551 nM; the off-rate constant (koff) is 5.44e-05 s⁻¹ and 5.13e-05 s⁻¹ and 7.14e-05 s⁻¹; the kon is 1.04e+06 M⁻¹ s⁻¹ and 1.07e+06 M⁻¹ s⁻¹ and 1.3e+06 M⁻¹ s⁻¹. In [2], this molecule had a Kd of 0.052 nM, a dissociation rate constant (koff) of 5.9e-05 s⁻¹ and a kon of 1.14e+06 M⁻¹ s⁻¹.

With peptide 3 (PhdSTm52-73-D53A), in assay [3], the Kd was 0.0121 nM and 0.0166 nM and 0.00992 nM; the koff was 6.65e-05 s⁻¹ and 8.25e-05 s⁻¹ and 4.72e-05 s⁻¹; the kon was 5.48e+06 M⁻¹ s⁻¹ and 4.98e+06 M⁻¹ s⁻¹ and 4.76e+06 M⁻¹ s⁻¹. In assay [2], the off-rate constant (koff) turned out to be 6.5e-05 s⁻¹ and the kon stood at 5.07e+06 M⁻¹ s⁻¹.

Take peptide 7 (PhdSTm52-73-I59A): the equilibrium dissociation constant (Kd) in assay [4] is 19.9 nM; in [5], 25.4 nM and 19.4 nM and 15.1 nM.

With peptide 8 (PhdSTm52-73-M60A), in assay [6], the Kd was 0.67 nM and 0.611 nM and 0.485 nM; the koff was 0.000966 s⁻¹ and 0.00091 s⁻¹ and 0.00181 s⁻¹; the kon is 1.44e+06 M⁻¹ s⁻¹ and 1.49e+06 M⁻¹ s⁻¹ and 3.73e+06 M⁻¹ s⁻¹. Further, in assay [2], the equilibrium dissociation constant (Kd) is 0.553 nM, the koff was 0.00122 s⁻¹ and the on-rate constant (kon) was 2.22e+06 M⁻¹ s⁻¹.

For the molecule peptide 9 (PhdSTm52-73-V62A), in assay [2], the Kd stood at 0.171 nM, the koff was determined as 0.000388 s⁻¹ and the kon was 2.27e+06 M⁻¹ s⁻¹. Moreover, in assay [7], the Kd was 0.183 nM and 0.239 nM and 0.132 nM; the off-rate (koff) was 0.000329 s⁻¹ and 0.000394 s⁻¹ and 0.000442 s⁻¹; the kon is 1.8e+06 M⁻¹ s⁻¹ and 1.65e+06 M⁻¹ s⁻¹ and 3.35e+06 M⁻¹ s⁻¹.

Take peptide 10 (PhdSTm52-73-H63A): the Kd in assay [4] is 21.8 nM; in assay [5] it was 12.2 nM and 13.1 nM and 40 nM.

With peptide 11 (PhdSTm52-73-G64A), in assay [8], the Kd was 0.13 nM and 0.0743 nM and 0.0769 nM; the koff was 1.42e-05 s⁻¹ and 2.28e-05 s⁻¹ and 2.23e-05 s⁻¹; the kon is 1.08e+06 M⁻¹ s⁻¹ and 3.07e+06 M⁻¹ s⁻¹ and 2.9e+06 M⁻¹ s⁻¹. In assay [2], this molecule registered a Kd of 0.084 nM, a koff of 0.000197 s⁻¹ and an association rate constant (kon) of 2.35e+06 M⁻¹ s⁻¹.

Regarding peptide 13 (PhdSTm52-73-E66A), in assay [2], the Kd was 0.042 nM, the koff came out at 0.000112 s⁻¹ and the kon came out at 2.7e+06 M⁻¹ s⁻¹. In [9], the Kd was 0.0475 nM and 0.0451 nM and 0.0352 nM; the koff is 7.15e-05 s⁻¹ and 0.000147 s⁻¹ and 0.000118 s⁻¹; the kon is 1.5e+06 M⁻¹ s⁻¹ and 3.26e+06 M⁻¹ s⁻¹ and 3.35e+06 M⁻¹ s⁻¹.

In the case of peptide 14 (PhdSTm52-73-L67A), the Kd in assay [4] was 21.4 nM; in assay [5], 25 nM and 23.9 nM and 15.4 nM.

In assay [2], peptide 15 (PhdSTm52-73-R68A) came in with a Kd of 0.115 nM, a koff of 0.000185 s⁻¹ and a kon of 1.6e+06 M⁻¹ s⁻¹. In [10], the Kd was 0.124 nM and 0.106 nM and 0.112 nM; the koff was 0.000244 s⁻¹ and 0.000166 s⁻¹ and 0.000144 s⁻¹; the kon was 1.95e+06 M⁻¹ s⁻¹ and 1.57e+06 M⁻¹ s⁻¹ and 1.29e+06 M⁻¹ s⁻¹.

In assay [2], peptide 16 (PhdSTm52-73-E69A) returned an equilibrium dissociation constant (Kd) of 0.065 nM, an off-rate (koff) of 0.000136 s⁻¹ and a kon of 2.1e+06 M⁻¹ s⁻¹. In addition, in [11], the Kd is 0.0687 nM and 0.0703 nM and 0.0518 nM; the koff was 0.000151 s⁻¹ and 0.000169 s⁻¹ and 8.97e-05 s⁻¹; the kon is 2.2e+06 M⁻¹ s⁻¹ and 2.37e+06 M⁻¹ s⁻¹ and 1.73e+06 M⁻¹ s⁻¹.

As for peptide 17 (PhdSTm52-73-L70A), in [12], the Kd was 2.1 nM and 1.98 nM and 1.02 nM; the koff is 0.00602 s⁻¹ and 0.00634 s⁻¹ and 0.00554 s⁻¹; the kon was 2.87e+06 M⁻¹ s⁻¹ and 3.2e+06 M⁻¹ s⁻¹ and 5.44e+06 M⁻¹ s⁻¹. In assay [2], this molecule gave a koff of 0.00597 s⁻¹ and a kon of 3.84e+06 M⁻¹ s⁻¹.

Consider peptide 18 (PhdSTm52-73-D72A), for which, in [2], the equilibrium dissociation constant (Kd) came to 0.033 nM, the koff was determined as 8.4e-05 s⁻¹ and the kon was determined as 2.51e+06 M⁻¹ s⁻¹. For the same molecule, in [13], the Kd is 0.0532 nM and 0.0189 nM and 0.0385 nM; the koff is 7.43e-05 s⁻¹ and 5.67e-05 s⁻¹ and 0.00012 s⁻¹; the kon was 1.4e+06 M⁻¹ s⁻¹ and 3.01e+06 M⁻¹ s⁻¹ and 3.12e+06 M⁻¹ s⁻¹.

In assay [2], peptide 20 (PhdSTm52-71) gave a Kd of 0.428 nM, a koff of 0.000393 s⁻¹ and a kon of 917000 M⁻¹ s⁻¹. Besides, in assay [14], the Kd is 0.447 nM and 0.414 nM and 0.424 nM; the koff is 0.000413 s⁻¹ and 0.000387 s⁻¹ and 0.000378 s⁻¹; the kon is 925000 M⁻¹ s⁻¹ and 934000 M⁻¹ s⁻¹ and 891000 M⁻¹ s⁻¹.

As to peptide 22 (Phd 55-71), the Kd in assay [15] worked out at 0.347 nM.

In assay [15], peptide 23 (Phd 56-70) gave a Kd of 1.98 nM.

Consider Ac-EFAAIMAVHGNELRELADK-OH [peptide 21 (N-terminally truncated analogue of peptide 1)], for which the “fold loss in Kd against peptide 1” value in assay [16] was roughly 5 fold.

As for FASLFDTLDSTNKEL [Phd peptide 23 56-70], in the assay with Doc, the dissociation constant Kd was found to be 1.98 nM.

For the molecule Ac-WMDDEFAAIMAVHGNELRELA-OH [peptide 20 (C-terminally truncated analogue of peptide 1)], the “fold loss in Kd against peptide 1” value in [16] was roughly 5 fold.

In the case of EFASLFDTLDSTNKELV [Phd peptide 22 55-71], the Kd with Doc is 0.347 nM.

On to Ac-WMDDEFAAIMAVHGNEARELADK [peptide 14 (Phd 52-73 L67A)], for which the Kd in assay [17] amounted to 20 nM.

In assay [17], Ac-WMDDEFAAAMAVHGNELRELADK [peptide 7 (Phd 52-73 I59A)] had a Kd of 20 nM.

In turn, Ac-WMDDEFAAIMAVAGNELRELADK [peptide 10 (Phd 52-73 H63A)] registered a Kd in assay [17] of 20 nM.

As for AALDAEFASLFDTLDSTNKELVNR [Phd peptide 1 neutralization domain], the Kd with Doc is 0.073 nM. In other words, the picomolar range.

The values are drawn from article PMC9207808 (ACS Chemical Biology, 2022).
